Several values for one entry are separate records, joined by “and”; a condition that tells them apart may be missing. Identical values can stand only once.

Assay in all cases: MATE ELISA, interaction with various receptors (Example 55)
What all share (assay type): binding
Common to all, as to conditions: Table 11; three replicate values
In general terms: ELISA stands for enzyme-linked immunosorbent assay.

The subject of one experiment is CD16a 158V. Here is the method: (§1) Coat ELISA plates (Costar 3922) using Neutravidin (Thermo 31000) at 5 μg/ml in PBS (100 μl/well) for 1 hour at 37° C. Plates were washed 4 times with PBST (PBS, 0.05% Tween 20-200 μl, 1 minute/wash) then blocked using 200 μl 5% bovine serum albumin (BSA, Heat Shock, Fraction V-American Bio AB01088-00100) in PBST for 2 hours at 25° C. with moderate shaking. BSA was removed and plates were washed. […] Protein was removed and plates were washed. MATE labeled antibodies diluted to 1 μg/ml in PBSTB (100 μl/well) were added and incubated for 1 hour at 25° C. with gentle shaking. Wash plates. HRP labeled Mouse Anti-Human IgG, F(ab′)2 (Jackson Immuno Research 209-035-097) diluted 1:2500 in PBSTB was added (100 μl/well) and incubated for 1 hour at 25° C. with gentle shaking. Wash plates. Substrate (Super Signal ELISA Pico Chemiluminescent Substrate-Thermo 37069) was added (100 μl/well) and plates were incubated for 5 minutes at 25° C. with gentle shaking. Luminescence was then measured on the Biotek Synergy H1 microplate reader.
(§2) In some embodiments, “stock” is antibody only, and “control” is an antibody that went through the same procedure except using DMSO only as opposed to a compound. When contacted with targeting moieties such as antibodies in the Examples, compounds, e.g., I-95, I-96, etc. can react through their reactive groups
(§3) [drawing 887] with reactive groups of targeting moieties (e.g., —NH2) to form conjugates by forming amide groups (—C(O)NH—).

In another experiment the target is CD16a158F (Homo sapiens, UniProt P08637). Here is the method:
as §1, §2, §3

A further experiment deals with CD16b (Homo sapiens, UniProt O75015). Here is the method: as §1, §2, §3
Chain of CD16b (O75015 17-200): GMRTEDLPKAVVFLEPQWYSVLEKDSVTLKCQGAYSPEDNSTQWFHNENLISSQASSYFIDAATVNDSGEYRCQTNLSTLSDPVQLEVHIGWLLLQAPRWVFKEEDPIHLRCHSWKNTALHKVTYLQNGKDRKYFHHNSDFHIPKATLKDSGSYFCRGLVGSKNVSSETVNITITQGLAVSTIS
Another experiment addresses T1, CD32a H167 (Homo sapiens, UniProt P12318).
T1 sequence (P12318 36-218 limits assumed): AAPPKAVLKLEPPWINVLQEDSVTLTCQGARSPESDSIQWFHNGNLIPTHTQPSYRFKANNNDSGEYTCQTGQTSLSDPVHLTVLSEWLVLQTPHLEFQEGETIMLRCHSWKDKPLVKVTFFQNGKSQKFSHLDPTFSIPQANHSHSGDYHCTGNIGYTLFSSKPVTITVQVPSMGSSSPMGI
The protocol: as §1, §2, §3

In a further experiment the test system is CD32a-R167. The protocol: as §1, §2, §3
The next experiment deals with T2, CD32b (Homo sapiens, UniProt P31994).
T2 sequence (P31994 43-310): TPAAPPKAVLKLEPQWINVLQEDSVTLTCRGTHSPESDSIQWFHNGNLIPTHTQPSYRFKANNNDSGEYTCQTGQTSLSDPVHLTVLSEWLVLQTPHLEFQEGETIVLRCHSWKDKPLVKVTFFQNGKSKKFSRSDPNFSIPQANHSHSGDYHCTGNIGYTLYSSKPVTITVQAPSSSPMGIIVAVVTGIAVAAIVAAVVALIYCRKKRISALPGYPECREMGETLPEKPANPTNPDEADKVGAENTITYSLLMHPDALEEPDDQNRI
The protocol:
as §1, §2, §3

The next experiment addresses CD38 (Homo sapiens, UniProt P28907). Here is the method: as §1, §2, §3
The target in a further experiment is CD3ed (Homo sapiens, UniProt P04234+P07766). Here is the method:
as §1, §2, §3

Chain of CD16a158F (P08637 17-208 limits assumed): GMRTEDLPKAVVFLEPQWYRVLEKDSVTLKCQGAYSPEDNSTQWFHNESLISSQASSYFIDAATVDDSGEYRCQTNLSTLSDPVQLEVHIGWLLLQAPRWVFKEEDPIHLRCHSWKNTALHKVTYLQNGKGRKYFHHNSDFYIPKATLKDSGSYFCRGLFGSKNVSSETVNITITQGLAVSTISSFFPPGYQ
Chain of CD3ed (P07766 23-126 limits assumed): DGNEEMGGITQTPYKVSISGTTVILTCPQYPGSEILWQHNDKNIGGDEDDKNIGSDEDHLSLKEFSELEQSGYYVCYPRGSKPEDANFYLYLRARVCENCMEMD
Chain of CD3ed (P04234 22-105 limits assumed): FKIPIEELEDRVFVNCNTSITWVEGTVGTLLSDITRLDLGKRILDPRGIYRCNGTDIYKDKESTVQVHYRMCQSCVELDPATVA

In the case of “Daratumumab Control: "'control' is an antibody that went through the same procedure except using DMSO only as opposed to a compound"”, the “MATE ELISA Results CD16a 158V” value in the experiment with CD16a 158V is 1407940 and 1365053 and 1337882. The “MATE ELISA Results CD16a 158F” value with CD16a158F is 82022 and 81780 and 84907. Besides, the “MATE ELISA Results CD16b” value with CD16b was 3125 and 3086 and 3079. Further, the “MATE ELISA Results CD32a H167” value with CD32a H167 was 485766 and 481839 and 470053. For the same substance, the “MATE ELISA Results CD32a R157” value in the experiment on CD32a-R167 was 125444 and 122409 and 116704. Further, the “MATE ELISA Results CD32b” value with CD32b was 9479 and 9358 and 9228. Besides, in the experiment with CD38, the “MATE ELISA Results CD38” value is 2893900 and 2774268 and 2739576. Moreover, the “MATE ELISA Results CD3ed” value with CD3ed is 219 and 257 and 505.
